Here are results for ten compounds from US20180312539A1, “METHODS FOR PREPARING HIGH THROUGHPUT PEPTIDOMIMETICS, ORALLY BIOAVAILABLE DRUGS AND COMPOSITIONS CONTAINING SAME” (University of Southern California, priority 2011, published 2018).

Where “and” joins values, the source holds several entries; their conditions need not be identical. Equal values may be shown once. *1 amine or outer side, *2 acyl side, *3 side chain or, on linkers, in order; H or OH if unused. Where a SMILES comes first, the peptide text is derived from it. Bridges are numbered along the chain shown (N, C = ends). Where no end group is shown, it is not given here. [ ]: non-standard residue; d: D form. The star is where a group is joined. 5FAM = O=C1OC2(c3ccc(O)cc3Oc3cc(O)ccc32)c2ccc(C(=O)*)cc21; Biotin = O=C1N[C@H]2[C@H](CS[C@H]2CCCCC(=O)*)N1; NMeW = CN[C@@H](Cc1c[nH]c2ccccc12)C(=O)O; Glutaryl = O=C(CCCC(=O)[*:2])[*:1]; NMeNva = CCC[C@H](NC)C(=O)O; NMeA = CN[C@@H](C)C(=O)O Where only a bound is given, the exact number is not on record here.

Details of series [1]: species or system C57BL6 mice. As to conditions: mouse, in vivo. The protocol:
The following peptides were synthesized for oral administration: […](FAM) (SEQ ID NO: 14), […](FAM)DK(Palmitoleic acid) (SEQ ID NO: 15), and […](FAM) (SEQ ID NO: 16), wherein FAM is a lysine derivative containing fluorescein. All peptides were cyclized from the side chain to lysine to the N-terminus as previously described. Anesthetized C57BL6 mice had peptide administered at a dose of 10 mg/kg by oral gavage. After administration, mice were removed from isoflurane. At various time points, blood samples were taken by orbital bleeding as previously described. Peaks were normalized to a 15 minute time point from mice that had peptide administered by IV injection.
The following peptides were synthesized for oral administration: […](FAM) (SEQ ID NO: 14), […](FAM) (SEQ ID NO: 16), […](FAM)DK(biotin) (SEQ ID NO: 38), and […](FAM)DK(Palmitoleic acid) (SEQ ID NO: 15). All peptides were cyclized from the side chain to lysine to the N-terminus as previously described in Millward, S. W. et al. (2007) ACS Chem. Biol. 2:625. Anesthetized C57BL6 mice had peptide administered at a dose of 10 mgs/Kg by oral gavage. After administration, mice were removed from isoflurane. At various time points, blood samples were taken by orbital bleeding as previously described. Peaks were normalized to a 20 minute time point from mice that had peptide administered by IV injection. Area under the curve was analyzed by Graphpad 5.0.
In addition to accessing intracellular targets in cell culture, deriving a simple modification that would facilitate oral bioavailability of peptidic ligands would be greatly beneficial for therapeutic development. Intestinal absorption of both fatty acids and biotin is nearly 100% efficient. Zempleni, J. and Mock, D. M. (1999) The American Journal of Clinical Nutrition 69:504. […] Applicants synthesized a protease resistant peptide with the sequence […]-mod (designated SUPR peptide) (SEQ ID NO: 50), where A is N-methyl alanine, the peptide is cyclized from lysine to the N-terminus, and K(mod) is lysine with a modified sidechain including either biotin or palmitoleic acid. Palmitoleic acid is a monounsaturated fatty acid chosen for its ability to bind human serum albumin, and its low melting point allowing for more favorable solubility of conjugated peptides as compared to […] fatty acid conjugates. This peptide was administered to mice at a dose of 10 mg/kg by oral gavage. At various time points, blood was taken from the mice by orbital bleeding. After processing, fluorescence was quantified and compared to the maximum signal obtained by IV injection of peptide at the same dose.

A further series can be described thus: Human serum digests. The series is classed as in vitro ADME. As to conditions: reconstituted human serum, 37° C. Here is the method:
Delipidated/lyophilized human serum was purchased from Thermo Scientific and reconstituted as per manufacturer's instructions. 250 nmoles of peptide in 50 μLs of sodium phosphate buffer (pH=8.0) with 10% DMSO was added to 1 mL of reconstituted serum and incubated at 37° C. 100 μL aliquots were taken at various time points and quenched in 300 μLs of acetonitrile. Samples were spun down and decanted to remove precipitate followed by dilution in water to 1.5 mLs. Samples were then analyzed by HPLC as described in the protease resistance experiment.
Delipidated/lyophilized human serum was purchased from Thermo Scientific and reconstituted as per manufacturer's instructions. 250 nmoles of peptide in 50 μL of sodium phosphate buffer (pH=8.0) with 10% DMSO was added to 1 mL of reconstituted serum and incubated at 37° C. 100 μL aliquots were taken at various time points and quenched in 300 μL of acetonitrile. Samples were spun down and decanted to remove precipitate followed by dilution in water to 1.5 mLs.
The human serum and human microsome stability of the Gαi1 binding SUPR peptide ([…] (SEQ ID NO: 7)) were compared to the peptides ability to bind to Her-2. Beginning with the human serum analysis, peptides were digested with 95% human serum at 37° C. Analysis was performed by HPLC. […] Therefore, intact peptide is only completely unmodified peptide. Digestions of SUPR, HMP, and PMP are show have lives very similar to SUPR. Digestion of PMP2 is in progress. Without being bound by theory, Applicants theorize that the fitting for HMP may have produced an artificially low half-life.

Series [2] is described as follows: PAMPA (parallel artificial membrane permeability assay). The series is classed as in vitro ADME. As to conditions: for Log Pe of peptide (biotinylated): biotin-labeled peptide (number + B), non-reducible biotin; for Log Pe of peptide (biotinylated) / Log Pe of peptide: PBS pH 7.4, 24 hrs; for Log Pe of peptide: unmodified peptide, room temperature; for Log Pe: peptide conjugated to biotin containing a reducible disulfide (RB), acceptor well reducing (10 mM DTT). Here is the method: PAMPA assays were set up following manufacturer's instructions. Briefly, 1% phosphatidyl choline (Sigma) was dissolved in dodecane (Sigma) at 65° C. for 3 min. The membrane was applied to each well as per manufacturer's instructions. […] 100 μL of sample was put into each donor well. The acceptor wells contained 300 μL of a 5% DMSO in PBS solution. Passive diffusion was allowed to occur at room temperature for 24 hrs. […] Absorbance at 215 nm was monitored. The area under the peptide peak was integrated.
The acceptor well contained 10 mM DTT as a reducing agent. Data was collected after 6, 12 and 24 hrs. Absorbance at 280 nm was analyzed. The following formula was used to calculate Log Pe: […]
Applicants employed a parallel artificial membrane permeability assay (PAMPA) that will allow for the rapid screening of peptide passive diffusion across a phospholipid bilayer. (Schmidt, et al. (2003) J. Millipore Corporation Application Note AN1729EN00.). In this assay, two chambers are separated by a phospholipid bilayer supported on an inert membrane. Applicants chose to initially focus Applicants examination on peptide ligands developed to bind with high affinity to the heterotrimeric G-proteins Gαi1*GDP and Gα12*GDP. Ja, W. W., et al. (2004) Biochemistry 43:9265; Millward, S. W., et al. (2007) ACS Chem. Biol. 2:625; Fiacco, S. et al. (2008) ChemBioChem 9:2200. These ligands included variations in sequence, size, overall charge, and polarity as well as comparing linear and cyclic peptides, end and biotinylation. […] According to classical methods of increasing permeability. Pinski, C. A., et al. (2001) Advanced Drug Delivery Reviews 46:3. Applicants postulated that the removal of hydrogen bond donors by N-methylation should further increase the permeability of this peptide.
(In PAMPA a lipid-coated filter parts donor from acceptor wells.)

The target of a further series is T1, chymotrypsin (Bos taurus, UniProt P00766).
T1 construct: purchased Sigma
In words: Protease resistance experiment, chymotrypsin digest. The series is classed as in vitro ADME. The protocol: Immobilized chymotrypsin and proteinase K purchased from Sigma.
Protease resistance enhancement was then tested.
Towards that end, three peptides were synthesized. […] The effects were dramatic and surprising.

The target of another series is proteinase K (Parengyodontium album, UniProt P06873). As to conditions: immobilized proteinase K, 4° C; for Cyc t1/2: cyclic peptide; for Lin t1/2: linear peptide. Here is the method:
Immobilized chymotrypsin and proteinase K purchased from Sigma. 250 nmoles of peptide in DMSO were added to 50 mM sodium phosphate buffer (pH=8.0) with a final DMSO concentration of 2%. […] The graph was generated by fitting the data to a one phase exponential decay equation (GraphPad Prism 5.0).
Protease resistance enhancement was then tested. The simplest solution for enhancing protease resistance would be the removal of amino acids recognized by protease K and chymotrypsin.
Next the role of each of the N-methyl alanines was analyzed independently. […] For example sequence modifications, including N-methylation would be accomplished one amino acid at a time, walking the peptide from low protease stability to high stability. Whether this is a viable approach for making a peptide like SUPR was investigated. Towards that end, Applicants walked back from SUPR peptide to something closer to cycGIBP, and to determine if there was a gradual decrease in protease resistance. Towards that end, three peptides were synthesized. Two of them contained only one NMA (alanine was substituted for NMA), and the other had no NMA. It was hypothesized that if one could walk back to cycGIBP, then one would expect the loss of a single N-methyl to have some effect on reducing protease resistance, but to still be better than cycGIBP.

Sequence of proteinase K (P06873 106-384): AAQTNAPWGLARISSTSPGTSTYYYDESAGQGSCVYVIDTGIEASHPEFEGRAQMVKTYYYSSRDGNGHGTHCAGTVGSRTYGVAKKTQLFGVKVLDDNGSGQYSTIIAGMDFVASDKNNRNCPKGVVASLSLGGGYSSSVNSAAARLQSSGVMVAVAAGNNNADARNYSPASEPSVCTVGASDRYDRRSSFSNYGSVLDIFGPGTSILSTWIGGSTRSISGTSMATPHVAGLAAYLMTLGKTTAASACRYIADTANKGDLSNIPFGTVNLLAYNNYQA

As usually defined, the bioavailability is dose-corrected exposure relative to a reference, in per cent. A high value points to much systemic uptake. `CSCC[C@@H]1NC(=O)CCCC(=O)NCCCC[C@@H](C(=O)N[C@@H](CCCCNC(=O)c2ccc3c(c2)C(=O)OC32c3ccc(O)cc3Oc3cc(O)ccc32)C(=O)N[C@H](CCCCNC(=O)CCCC[C@@H]2SC[C@@H]3NC(=O)N[C@@H]32)C(=O)O)NC(=O)[C@H](CO)NC(=O)[C@H](Cc2c[nH]c3ccccc23)NC(=O)[C@H](CCC(N)=O)NC(=O)[C@H](C)N(C)C(=O)[C@H](Cc2ccc(O)cc2)NC(=O)[C@H](CCC(=O)O)NC(=O)[C@H](Cc2ccc(O)cc2)NC(=O)[C@H](C)N(C)C(=O)[C@H](Cc2ccc(O)cc2)NC(=O)[C@H](Cc2ccccc2)NC1=O` [biotinylated peptide] (MFY[NMeA]YEY[NMeA]QWSKK(5FAM)[dK](Biotin)-OH; linker N-12 via Glutaryl; C-terminus assumed): the bioavailability in series [1] (10 mg/kg) is 9.4%. Besides, in series [1] (po), the “time of maximal uptake” value was 3 h. Besides, the oral uptake efficiency in series [1] (po, 10 mg/kg) was found to be 6.4%.
As usually defined, the half-life is how long it takes for the measured level to halve. A lower half-life goes with fast loss. `CC[C@H](C)[C@H](NC(=O)[C@@H](N)CCSC)C(=O)N[C@H](C(=O)N[C@@H](Cc1c[nH]c2ccccc12)C(=O)N[C@@H](Cc1ccc(O)cc1)C(=O)N[C@@H](CCC(=O)O)C(=O)N[C@@H](Cc1ccccc1)C(=O)N[C@H](C(=O)N[C@@H](C)C(=O)NCC(=O)N[C@H](C(=O)N[C@@H](CCCCN)C(N)=O)[C@@H](C)O)C(C)C)[C@@H](C)O` [linGIBP, reference compound] (H-MITWYEFVAGTK-NH2) showed a half-life in the series “Human serum digests” of roughly 504 s.
“(N-MeNva)ITWYEFVAGTK ([NMeNva]ITWYEFVAGTK(Biotin)-NH2; N-terminus assumed; SMILES CCC[C@H](NC)C(=O)N[C@H](C(=O)N[C@H](C(=O)N[C@@H](Cc1c[nH]c2ccccc12)C(=O)N[C@@H](Cc1ccc(O)cc1)C(=O)N[C@@H](CCC(=O)O)C(=O)N[C@@H](Cc1ccccc1)C(=O)N[C@H](C(=O)N[C@@H](C)C(=O)NCC(=O)N[C@H](C(=O)N[C@@H](CCCCNC(=O)CCCC[C@@H]1SC[C@@H]2NC(=O)N[C@@H]21)C(N)=O)[C@@H](C)O)C(C)C)[C@@H](C)O)[C@@H](C)CC) [Peptide 9]”: in series [2], the “Log Pe of peptide (biotinylated)” value is on record as −7.4 ± −0.1 and the “Log Pe of peptide” value is listed as −7.0 ± −0.1.
For “Cyclo-MITWYEFVAGTK (not fully specified (C-terminus, bridges); printed as Cyclo-MITWYEFVAGTK; also: cyclized, ring closure not given here) [Peptide 8]”, in series [2], the “Log Pe of peptide (biotinylated)” value was −6.5 and −6.5 ± −0.0; the “Log Pe” value is given as −5.9; the “Log Pe of peptide” value is −8.2 ± −0.2.
As to MFYAYEYAQWSK, in the series with chymotrypsin, the “Cyc t1/2” value was less than 12 s and the “Lin t1/2” value is less than 12 s. Moreover, in the series with proteinase K, the “Cyc t1/2” value is less than 12 s and the “Lin t1/2” value was less than 12 s.
For MITWYEFVAGTK [Peptide 7], in series [2], the “Log Pe of peptide (biotinylated)” value is on record as −6.6 ± −0.1 and the “Log Pe of peptide” value is recorded as −7.8 ± −0.1.
For MITWYEFVAGTK [reference compound], in the series with chymotrypsin, the “Cyc t1/2” value was found to be 126 s and the “Lin t1/2” value is 19.8 s. In the series with proteinase K, the “Cyc t1/2” value came to 60 s and the “Lin t1/2” value was less than 12 s.
For “MRLVWIVRSRHFGPRLRMAK (MRLVWIVRSRHFGPRLRMAK(Biotin)-NH2; N-terminus assumed; SMILES CC[C@H](C)[C@H](NC(=O)[C@H](Cc1c[nH]c2ccccc12)NC(=O)[C@@H](NC(=O)[C@H](CC(C)C)NC(=O)[C@H](CCCNC(=N)N)NC(=O)[C@@H](N)CCSC)C(C)C)C(=O)N[C@H](C(=O)N[C@@H](CCCNC(=N)N)C(=O)N[C@@H](CO)C(=O)N[C@@H](CCCNC(=N)N)C(=O)N[C@@H](Cc1c[nH]cn1)C(=O)N[C@@H](Cc1ccccc1)C(=O)NCC(=O)N1CCC[C@H]1C(=O)N[C@@H](CCCNC(=N)N)C(=O)N[C@@H](CC(C)C)C(=O)N[C@@H](CCCNC(=N)N)C(=O)N[C@@H](CCSC)C(=O)N[C@@H](C)C(=O)N[C@@H](CCCCNC(=O)CCCC[C@@H]1SC[C@@H]2NC(=O)N[C@@H]21)C(N)=O)C(C)C) [Peptide 11]”, the “Log Pe of peptide (biotinylated)” value in series [2] is −6.0 ± −0.1.
Regarding “MSQTKRLDDQLYWWEYL (Biotin-MSQTKRLDDQLYWWEYL) [Peptide 10]”, in series [2], the “Log Pe of peptide (biotinylated)” value is −6.2 and −6.2 ± −0.0; the “Log Pe” value was −4.8; the “Log Pe of peptide” value is −8.4 ± −0.1. For the same compound, the “fold increase in peptide delivery” value in series [2] (reducible vs nonlabile biotin conjugate) worked out at 16 fold.
Consider “NNNNNDKLY(N-MeW)WEFL (Biotin-NNNNNDKLY[NMeW]WEFL) [Peptide 6]”, for which, in series [2], the “Log Pe of peptide (biotinylated)” value is −6.6 ± −0.1 and the “Log Pe of peptide” value is listed as greater than −9.0.
